Measured values published in the supplement of paper PMC9170038.

Key:
MS2 coat protein [1] = assay: apparent KD of MS2 coat protein, switch ON state; designed switch direction (-1 OFF switch, 1 ON switch): -1; higher = weaker reporter binding; settings: FMN input: 0 or 200 uM; Eterna round: R93 (includes R88 designs)
Outline: (§1)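 Apparent KD per design is the median of normalised cluster binding-curve fits. Designed RNA switches transcribed on-chip from Illumina sequencing clusters were titrated with SNAP-549-labelled MS2 coat protein in twofold steps from 0.7 or 1.5 nM to 3 µM, with 0.8–1.5 h down to 10–20 min per step. Buffer: 100 mM Tris-HCl pH 7.5, 80 mM KCl, 4 mM MgCl2, without or with constant ligand.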

MS2 coat protein [2] = assay: apparent KD of MS2 coat protein, switch OFF state (with FMN for OFF switches, without FMN for ON switches); designed switch direction (-1 OFF switch, 1 ON switch): -1; higher = weaker reporter binding; settings: FMN input: 0 or 200 uM; Eterna round: R93 (includes R88 designs)
Outline: as §1

## AACUGGCUAGGAUAUACGUAAUAAAAUAUCAGUGAGAUUUCACAUGAGGAUCACCCAUGUAGAAGGAGCAAAAU [Esxereorar]
MS2 coat protein [1]
  apparent KD of MS2 coat protein: 24.5 nM
MS2 coat protein [2]
  apparent KD of MS2 coat protein: 16.6 nM

## AAGAAACAUGAGGAUCACCCAUGUCAGGAUAUGAAAAAGAAAAGAAAAGAAAGAAGAAUCAGAAGGGACAAAGG [Neferkauhor Khuwihapi]
MS2 coat protein [1]
  apparent KD of MS2 coat protein: 74.1 nM
MS2 coat protein [2]
  apparent KD of MS2 coat protein: 27.4 nM

## AAGAAACAUGAGGAUCACCCAUGUGAGGAUAUUCAAAAGAAAAGAAAAGAAAGAAGAAGAAGAAGGCACAAAGG [Neferkamin]
MS2 coat protein [1]
  apparent KD of MS2 coat protein: 24.7 nM
MS2 coat protein [2]
  apparent KD of MS2 coat protein: 45.5 nM

## AAGAAAGGAGGAUAUACAAGAAAGAAAGAAAAGAAAAGAAAACAUGAGGAUCACCCAUGUAGAAGGCCUUAGAA [EteRNA is fun!]
MS2 coat protein [1]
  apparent KD of MS2 coat protein: 26.9 nM
MS2 coat protein [2]
  apparent KD of MS2 coat protein: 17.8 nM

## AAGAACCUAGGAUAUACAAAAUAAAAGAAAAGAAAGAAAGAACAUGAGGAUCACCCAUGUAGAAGGAGGAAGAA [Renseneb]
MS2 coat protein [1]
  apparent KD of MS2 coat protein: 48.3 nM
MS2 coat protein [2]
  apparent KD of MS2 coat protein: 18.5 nM

## AAGAACUCAGGAUAUACAUGAGGAUCACCCAUGUAAAAGAAAGAAAAGGGAAAGAAAAGUAGAAGGGAGAAGAA [Neferkheperure-waenre Amenhotep IV]
MS2 coat protein [1]
  apparent KD of MS2 coat protein: 32.7 nM
MS2 coat protein [2]
  apparent KD of MS2 coat protein: 36.2 nM

## AAGAACUGAGGAUAUACACAAGAAAAGAAAAGAAAGAAAGAACAUGAGGAUCACCCAUGUAGAAGGCGGAAGAA [Merhotepre Sobekhotep V]
MS2 coat protein [1]
  apparent KD of MS2 coat protein: 39.3 nM
MS2 coat protein [2]
  apparent KD of MS2 coat protein: 26.5 nM

## AAGAAGAUAGGAUAUACAAAAUAAAAGAAAAGAAAGAAAGAACAUGAGGAUCACCCAUGUAGAAGGAUCAAGAA [Sehetepibre Amenemhat I]
MS2 coat protein [1]
  apparent KD of MS2 coat protein: 25 nM
MS2 coat protein [2]
  apparent KD of MS2 coat protein: 17.7 nM

## AAGAAGCUAGGAUAUACAUGAGGAUCACCCAUGUAAAAGAAAGAGGGAAAAGAGAAAAGUAGAAGGAGCAAGAA [Cleopatra I]
MS2 coat protein [1]
  apparent KD of MS2 coat protein: 27.8 nM
MS2 coat protein [2]
  apparent KD of MS2 coat protein: 25.4 nM

## AAGAAGUAAGGAUAUACAAGAAAGAAAGAAAAGAAAAGAAAACAUGAGGAUCACCCAUGUAGAAGGUACUAGAA [EteRNA is fun!]
MS2 coat protein [1]
  apparent KD of MS2 coat protein: 24.1 nM
MS2 coat protein [2]
  apparent KD of MS2 coat protein: 14.9 nM

## AAGAAGUCAGGAUAUACUAAAGAAAUAAAAAGAAAGAAAGAACAUGAGGAUCACCCAUGUAGAAGGGACAAGAA [Sewadjare Mentuhotep V]
MS2 coat protein [1]
  apparent KD of MS2 coat protein: 67.4 nM
MS2 coat protein [2]
  apparent KD of MS2 coat protein: 31.7 nM

## AAGAAGUCAGGAUAUGCUGCUCGUCACUUGCGUGAUGAGUAGCAGAAGGGACAUGAGGAUCACCCAUGUGGAAA [Modifying Chris (69%) Late G segment 2]
MS2 coat protein [1]
  apparent KD of MS2 coat protein: 123 nM
MS2 coat protein [2]
  apparent KD of MS2 coat protein: 246 nM

## AAGAAGUGAGGAUAUUCGGAUAGGAAAACGAAAACCUAUCCGAAGAAGGCACAUGAGGAUCACCCAUGUAAAAA [Mat - Exaclusion 4 - Eli mod - D41]
MS2 coat protein [1]
  apparent KD of MS2 coat protein: 36.7 nM
MS2 coat protein [2]
  apparent KD of MS2 coat protein: 54.3 nM

## AAGAAGUUAGGAUAUACAAAAUAAAAGAAAAGAAAGAAAGAACAUGAGGAUCACCCAUGUAGAAGGGACAAGAA [Nubkaure Amenemhat II]
MS2 coat protein [1]
  apparent KD of MS2 coat protein: 59.2 nM
MS2 coat protein [2]
  apparent KD of MS2 coat protein: 33.9 nM

## AAGAAUGAAGGAUAUACAAGGAAGAAAGAAAAGAAAAGAAAACAUGAGGAUCACCCAUGUAGAAGGUCAUAGAA [EteRNA is fun!]
MS2 coat protein [1]
  apparent KD of MS2 coat protein: 22 nM
MS2 coat protein [2]
  apparent KD of MS2 coat protein: 26.3 nM

## AAGAGUACAGGAUAUAUGUGAAAAGAGUCGAAAGACUCAAAACAUGAGGAUCACCCAUGUAGAAGGGUACUCAA [Diamond 74]
MS2 coat protein [1]
  apparent KD of MS2 coat protein: 52.5 nM
MS2 coat protein [2]
  apparent KD of MS2 coat protein: 27.3 nM

## AAGAGUACAGGAUAUAUGUGAAAAGAGUCGAAAGACUCGGGACAUGAGGAUCACCCAUGUAGAAGGGUACUCAA [Diamond 75]
MS2 coat protein [1]
  apparent KD of MS2 coat protein: 75.7 nM
MS2 coat protein [2]
  apparent KD of MS2 coat protein: 79.7 nM

## AAGAGUAGAGGAUAUACAUGAGGAUCACCCAUGUAAUCCAGAUAAGGAAGCAUGGCGUGUAGAAGGCUGCAUGA [MOD of Nando (MS2 Riboswitches- Exclusion 3)]
MS2 coat protein [1]
  apparent KD of MS2 coat protein: 28.2 nM
MS2 coat protein [2]
  apparent KD of MS2 coat protein: 35.2 nM

## AAGAUGUCAGGAUAUACAUAAAUAAAAAAUUAUGUUAAAACACAUGAGGAUCACCCAUGUAGAAGGGACAACAA [AJ 6]
MS2 coat protein [1]
  apparent KD of MS2 coat protein: 36.4 nM
MS2 coat protein [2]
  apparent KD of MS2 coat protein: 20.7 nM

## AAGCUGGUAGGAUAUACUAGGGCAACUAAUGCACCGAGAGGACAUGAGGAUCACCCAUGUAGAAGGGCCAGAAA [Mat - Exclusion 2 - JL mod - D63]
MS2 coat protein [1]
  apparent KD of MS2 coat protein: 114 nM
MS2 coat protein [2]
  apparent KD of MS2 coat protein: 82.3 nM

## AAGGGACAUGAGGAUCACCCAUGUCAGGAUAUGAUGCGAAUAAAGAAAGAAUAAAGCAUCAGAAGGGACGCCAA [Mat - Exclusion 1 - Eli mod - D65]
MS2 coat protein [1]
  apparent KD of MS2 coat protein: 21.1 nM
MS2 coat protein [2]
  apparent KD of MS2 coat protein: 25.7 nM

## AAGGUACGAGGAUAUACAUAGAUACAAACACAUGUGGAUGUACAUGAGGAUCACCCAUGUAGAAGGCGUAUAUA [AJ 22]
MS2 coat protein [1]
  apparent KD of MS2 coat protein: 58.6 nM
MS2 coat protein [2]
  apparent KD of MS2 coat protein: 84.7 nM

## AAGGUACGAGGAUAUACAUAGAUACAGACACAUGUAGAUGUACAUGAGGAUCACCCAUGUAGAAGGCGUAUAUA [AJ 20]
MS2 coat protein [1]
  apparent KD of MS2 coat protein: 60.7 nM
MS2 coat protein [2]
  apparent KD of MS2 coat protein: 97.5 nM

## AAGUAUAGAGGAUAUACAUAGAUACAGAUUCAUGUAGAACUACAUGAGGAUCACCCAUGUAGAAGGCUAUAAUA [AJ 34]
MS2 coat protein [1]
  apparent KD of MS2 coat protein: 19.4 nM
MS2 coat protein [2]
  apparent KD of MS2 coat protein: 27.9 nM

## AAGUUGGGAGGAUAUAUAUGGACACACAUUGGUGUAGAACUACAUGAGGAUCACCCAUGUAGAAGGCCCAAAUA [AJ 57]
MS2 coat protein [1]
  apparent KD of MS2 coat protein: 20.3 nM
MS2 coat protein [2]
  apparent KD of MS2 coat protein: 33.1 nM

## AAUAACAGAGGAUAUACAAAAAUAAAAGGAAACAAAAGAAAACAUGAGGAUCACCCAUGUAGAAGGCUGAAUAA [Tetraloop BlockHead]
MS2 coat protein [1]
  apparent KD of MS2 coat protein: 19.4 nM
MS2 coat protein [2]
  apparent KD of MS2 coat protein: 20.3 nM

## AAUAAGUGAGGAUAUACUAAAGAAAUGAAAAGAAAUAAAGAACAUGAGGAUCACCCAUGUAGAAGGCACAAUAA [Sekheperenre]
MS2 coat protein [1]
  apparent KD of MS2 coat protein: 24.4 nM
MS2 coat protein [2]
  apparent KD of MS2 coat protein: 24.5 nM

## AAUAAGUGAGGAUAUGGAAAUAAUAAAUAAAAUAAAAUAAACCAGAAGGCACAUGAGGAUCACCCAUGUAAAUA [JR_Exc004_Sub002]
MS2 coat protein [1]
  apparent KD of MS2 coat protein: 24.4 nM
MS2 coat protein [2]
  apparent KD of MS2 coat protein: 22 nM

## AAUAAUGGAGGAUAUACUAAAGAAAUGAAAAGAAAUAAAGAACAUGAGGAUCACCCAUGUAGAAGGCCAAAUAA [Khamure]
MS2 coat protein [1]
  apparent KD of MS2 coat protein: 26 nM
MS2 coat protein [2]
  apparent KD of MS2 coat protein: 27.8 nM

## AAUGCGGCAGGAUAUACAUGAGGAUCACCCAUGUAGAUCAGAUAUAUGGGAAAACCAUGUAGAAGGGCCGCAAA [Ex 3May 60]
MS2 coat protein [1]
  apparent KD of MS2 coat protein: 109 nM
MS2 coat protein [2]
  apparent KD of MS2 coat protein: 29.6 nM

## ACAGUUACAGGAUAUACAAAGGUAACUUCAAAGAAAACUCUACAUGAGGAUCACCCAUGUAGAAGGGUAACUGA [Ex2 Design 200 (probably): Random 17]
MS2 coat protein [1]
  apparent KD of MS2 coat protein: 14.3 nM
MS2 coat protein [2]
  apparent KD of MS2 coat protein: 18.2 nM

## ACAGUUACAGGAUAUACAAGGAAAAAUAAAAAUAAAAUUCAACAUGAGGAUCACCCAUGUAGAAGGGUAACUGA [Ex2 Design 200: Random 15]
MS2 coat protein [1]
  apparent KD of MS2 coat protein: 30 nM
MS2 coat protein [2]
  apparent KD of MS2 coat protein: 32.1 nM

## ACAUGUACAGGAUAUACGUGGAAAAAAAAAAAAAAAAAACUACAUGAGGAUCACCCAUGUAGAAGGGUACAUGA [Ex2 Design 194: Random 12C]
MS2 coat protein [1]
  apparent KD of MS2 coat protein: 26.5 nM
MS2 coat protein [2]
  apparent KD of MS2 coat protein: 37 nM

## ACCUAACAUGAGGAUCACCCAUGUGAGGAUAUAGACGUGAAUUAAACACGUAACAAAACUAGAAGGCACUGGGC [Erbeardi]
MS2 coat protein [1]
  apparent KD of MS2 coat protein: 26.1 nM
MS2 coat protein [2]
  apparent KD of MS2 coat protein: 16.8 nM

## ACCUGACAUGAGGAUCACCCAUGUCAGGAUAUGCAUCUUAGGAAAAAAAAACUAAGAUGCAGAAGGGACAUGGG [Design 2: Super Stable 2]
MS2 coat protein [1]
  apparent KD of MS2 coat protein: 25.4 nM
MS2 coat protein [2]
  apparent KD of MS2 coat protein: 27.5 nM

## ACUAACAGAGGAUAUACUAACAAACCUCAAACAUACAUCAAACAUGAGGAUCACCCAUGUAGAAGGCUGAAACU [JR_Exc002_Sub005]
MS2 coat protein [1]
  apparent KD of MS2 coat protein: 26.7 nM
MS2 coat protein [2]
  apparent KD of MS2 coat protein: 27 nM

## ACUUAUGAAGGAUAUACUAGCAACAUGCACUCAACACACACACAUGAGGAUCACCCAUGUAGAAGGUCAAACAU [JR_Exc002_Sub1206]
MS2 coat protein [1]
  apparent KD of MS2 coat protein: 23.2 nM
MS2 coat protein [2]
  apparent KD of MS2 coat protein: 19.7 nM

## AGAAAACAUGAGGAUCACCCAUGUAAGGAUAUGCUGAAAAACACGGAAAAAACGUGCAGCAGAAGGUACAAAGA [Mat - Exclusion 1 - Eli mod - D95]
MS2 coat protein [1]
  apparent KD of MS2 coat protein: 22.4 nM
MS2 coat protein [2]
  apparent KD of MS2 coat protein: 40.8 nM

## AGAAAACAUGAGGAUCACCCAUGUCAGGAUAUCCUGCGGUGAUACACACCGCGUUGUCGGAGAAGGGACAGGGA [Tiesesmari]
MS2 coat protein [1]
  apparent KD of MS2 coat protein: 65.6 nM
MS2 coat protein [2]
  apparent KD of MS2 coat protein: 81.9 nM

## AGAAAACAUGAGGAUCACCCAUGUGAGGAUAUGUAAAAGAAAAGAAAAGAAAGAAGAAACAGAAGGCACAAGAA [Nynetjer]
MS2 coat protein [1]
  apparent KD of MS2 coat protein: 24.9 nM
MS2 coat protein [2]
  apparent KD of MS2 coat protein: 45.6 nM
